Laboratory results from article PMC3683571 (2013).
Where no end group is shown, it is not given here.

Biological target: PSMA (Homo sapiens, UniProt Q04609)
Assay: electrochemical impedance spectroscopy

**Q.** For SECVEVFQNSCDW (cysteine pairing not given here; also: displayed on M13 phage) [phage-2 (phage-displayed peptide 2)], which Kd is on record?
**A.** 54 nM
